Measured values published in patent US8415393B2, “Anti-bacterial drug targeting of genome maintenance interfaces” (Wisconsin Alumni Research Foundation, priority 2007, dated 2013).
Substitutions are numbered along the chain they refer to. Where no end group is shown, it is not given here. fluorescein = fluorescein moiety attached to the N-terminus of the peptide (N-terminal fluorescein label)

Assays:
Assay in all cases: fluorescence anisotropy equilibrium binding (Kd,app), ExoI variant titrated into fluorescein-labeled peptide
ExoI Gln452Ala variant = target: T1, ExoI Gln452Ala variant (Escherichia coli, UniProt P04995 1-475)
T1 construct: helical domain residue; also called Q452A; Gln452 variant
T1 sequence: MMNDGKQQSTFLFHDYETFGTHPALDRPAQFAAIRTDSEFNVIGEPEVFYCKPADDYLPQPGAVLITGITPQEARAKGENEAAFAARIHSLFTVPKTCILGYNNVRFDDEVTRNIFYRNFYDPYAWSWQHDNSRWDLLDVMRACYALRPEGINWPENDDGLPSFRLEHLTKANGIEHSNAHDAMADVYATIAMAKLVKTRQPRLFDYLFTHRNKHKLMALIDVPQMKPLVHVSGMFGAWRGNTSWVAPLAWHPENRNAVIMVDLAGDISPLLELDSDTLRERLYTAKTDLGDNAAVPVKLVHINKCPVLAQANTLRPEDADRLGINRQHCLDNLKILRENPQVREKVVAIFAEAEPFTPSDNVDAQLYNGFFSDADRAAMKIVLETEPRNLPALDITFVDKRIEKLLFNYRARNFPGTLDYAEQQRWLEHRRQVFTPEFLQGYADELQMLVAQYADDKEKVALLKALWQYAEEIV

ExoI Gln448Ala variant = target: T2, ExoI Gln448Ala variant (Escherichia coli, UniProt P04995 1-475)
T2 construct: helical domain residue; also called Q448A; Gln448 variant
T2 sequence: T1 sequence with Q448A, A452Q

ExoI Asp319Ala variant = target: T3, ExoI Asp319Ala variant (Escherichia coli, UniProt P04995 1-475)
T3 construct: also called D319A; Asp319 variant
T3 sequence: T1 sequence with D319A, A452Q

ExoI Arg327Ala variant = target: T4, ExoI Arg327Ala variant (Escherichia coli, UniProt P04995 1-475)
T4 construct: also called R327A
T4 sequence: T1 sequence with R327A, A452Q

ExoI Leu331Ala variant = target: T5, ExoI Leu331Ala variant (Escherichia coli, UniProt P04995 1-475)
T5 construct: also called L331A
T5 sequence: T1 sequence with L331A, A452Q

B1: fluorescein-labeled SSB C-terminal peptide (fluorescein-WMDFDDDIPF) (peptide)
peptide: fluorescein-WMDFDDDIPF
notes: also called F-SSB-Ct; F-WT
Q: Which results are given for B1?
A: Kd (ExoI Gln452Ala variant): 212 nM; Kd (ExoI Gln448Ala variant): 181 nM; Kd (ExoI Asp319Ala variant): 299 nM; Kd (ExoI Arg327Ala variant): 270 nM; Kd (ExoI Leu331Ala variant): 193 nM
